Measured values as given in paper PMC3260246.

Experiments:
Assay in all cases: membrane filtration equilibrium binding (Scatchard plot); 12.5 µM wild-type or mutant small heat shock protein incubated 1 hr at 60°C with 2–18 µM γ-crystallin in 50 mM phosphate buffer, 100 mM NaCl, pH 7.2; unbound substrate separated through a 100-kDa cut off Microcon filter; n per subunit of chaperone
[1] = target: wild-type human αA-crystallin (human) (UniProt P02489)
[2] = target: wild-type human αB-crystallin (human) (UniProt P02511)
[3] = target: wild-type human Hsp27 (human) (UniProt P04792)
[4] = target: αB-crystallin R12A mutant (human) (UniProt P02511)
[5] = target: Hsp27 R12A mutant (human) (UniProt P04792)
Sequence of Hsp27 R12A mutant (human) (P04792 whole entry R12A): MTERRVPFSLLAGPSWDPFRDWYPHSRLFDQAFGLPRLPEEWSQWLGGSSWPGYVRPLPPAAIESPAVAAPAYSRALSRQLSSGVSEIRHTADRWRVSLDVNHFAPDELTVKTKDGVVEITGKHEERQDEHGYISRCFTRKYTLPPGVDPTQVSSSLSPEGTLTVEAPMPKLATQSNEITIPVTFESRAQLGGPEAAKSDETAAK

Sequence of bovine γ-crystallin (P02526 whole entry): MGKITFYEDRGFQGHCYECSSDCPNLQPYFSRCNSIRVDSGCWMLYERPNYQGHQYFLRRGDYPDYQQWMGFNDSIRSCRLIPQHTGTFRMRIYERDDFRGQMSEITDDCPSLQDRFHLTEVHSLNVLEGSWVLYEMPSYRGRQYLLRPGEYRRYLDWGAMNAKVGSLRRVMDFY
Sequence of wild-type human Hsp27 (human) (P04792 whole entry): as the sequence (P04792 whole entry R12A) above, with A12R counted along it
Sequence of wild-type human αB-crystallin (human) (P02511 whole entry): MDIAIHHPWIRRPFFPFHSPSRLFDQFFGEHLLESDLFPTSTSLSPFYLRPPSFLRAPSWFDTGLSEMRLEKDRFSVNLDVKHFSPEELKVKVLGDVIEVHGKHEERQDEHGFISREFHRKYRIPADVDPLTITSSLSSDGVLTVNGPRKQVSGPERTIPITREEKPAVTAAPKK
Sequence of αB-crystallin R12A mutant (human) (P02511 whole entry R12A): as the sequence (P02511 whole entry) above, with R12A counted along it
Sequence of wild-type human αA-crystallin (human) (P02489 whole entry): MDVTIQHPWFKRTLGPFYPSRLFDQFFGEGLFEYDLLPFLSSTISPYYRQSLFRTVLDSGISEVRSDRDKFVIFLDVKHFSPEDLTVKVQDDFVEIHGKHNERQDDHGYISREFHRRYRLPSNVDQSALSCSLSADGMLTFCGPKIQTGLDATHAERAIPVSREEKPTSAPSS

bovine γ-crystallin (from UniProt P02526 1-175) (natural protein)
stoichiometry N [1]: 3.61
Kd [2]: 2.84 µM
stoichiometry N [2]: 2.34
Kd [3]: 5.91 µM
stoichiometry N [3]: 2.9
Kd [4]: 3.24 µM
stoichiometry N [4]: 1.68
Kd [5]: 5.79 µM
stoichiometry N [5]: 2.87
